{"source": "patent US20150141489", "biological_target": "recombinant GST-S6 (UniProt P62753)"}
{"substance": "T7-tagged mouse S6K1 Isoform-2 (Iso-2)", "values": [{"measurement": "in vitro kinase assay (phospho-S6 S240-244 blot)", "result": "have no kinase activity"}]}
